Data from patent US20220041658A1 (PROTAGONIST THERAPEUTICS, published 2022).
One block for each binder: values may come before it. Starred links: 1 amine or outer side, 2 acyl side, 3 side chain; linkers in the order of their positions; H or OH if unused. Positions of bridges follow the written chain, without caps; N, C: chain ends. Non-standard residues stand in square brackets, D forms with d. Trp(7-nPr) = CCCc1cccc2c(C[C@H](N[*:1])C(=O)[*:2])c[nH]c12; Trp(7-OMe) = COc1cccc2c(C[C@H](N)C(=O)O)c[nH]c12; Trp(7-Me) = Cc1cccc2c(C[C@H](N)C(=O)O)c[nH]c12; Trp(2-Me) = Cc1[nH]c2ccccc2c1C[C@H](N)C(=O)O; Trp(1-Me) = Cn1cc(C[C@H](N)C(=O)O)c2ccccc21; 2Nal = N[C@@H](Cc1ccc2ccccc2c1)C(=O)O; AEF = NCCOc1ccc(C[C@H](N)C(=O)O)cc1; Cit = NC(=O)NCCC[C@H](N)C(=O)O; Pen = CC(C)(S)[C@H](N)C(=O)O; αMeK = C[C@](N)(CCCCN)C(=O)O; Aib = CC(C)(N)C(=O)O; βAla = NCCC(=O)O

How the values were obtained:
[1] = biological target: T1, interleukin-23 receptor (IL-23R) (human, UniProt Q5VWK5 24-629); assay: cell-based or functional assay
T1 sequence (looked up): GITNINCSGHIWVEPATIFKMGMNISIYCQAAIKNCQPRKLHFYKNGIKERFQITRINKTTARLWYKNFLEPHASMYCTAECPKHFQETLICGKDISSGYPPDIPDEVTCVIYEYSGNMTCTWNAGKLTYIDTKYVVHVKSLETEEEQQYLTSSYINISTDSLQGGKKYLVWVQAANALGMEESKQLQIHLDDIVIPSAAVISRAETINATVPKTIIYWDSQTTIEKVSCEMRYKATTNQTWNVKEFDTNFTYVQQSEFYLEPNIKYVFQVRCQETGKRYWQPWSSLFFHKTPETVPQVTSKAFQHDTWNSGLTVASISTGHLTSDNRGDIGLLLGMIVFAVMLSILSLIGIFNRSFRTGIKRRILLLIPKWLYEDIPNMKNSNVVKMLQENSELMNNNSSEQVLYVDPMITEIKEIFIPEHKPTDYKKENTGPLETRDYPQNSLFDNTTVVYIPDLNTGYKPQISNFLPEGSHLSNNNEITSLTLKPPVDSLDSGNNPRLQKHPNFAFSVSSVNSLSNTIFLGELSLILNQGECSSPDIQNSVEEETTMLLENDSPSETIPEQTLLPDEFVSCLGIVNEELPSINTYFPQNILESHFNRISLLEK

[2] = biological target: T1, interleukin-23 receptor (IL-23R); assay: cell-based or functional assay; remark: listed apart in the source

pStat3 HTRF IC50 [1]: > 1 µM
Binder: Ac-[Pen]NT[Trp(7-Me)]K(Ac)[Pen][His_3Bom][2Nal][αMeK]K(Ac)N[dL]-NH2 (disulfide 1-6 (inferred)) [Peptide of SEQ ID NO: 291]

pStat3 HTRF IC50 [1]: 0.849 nM
B1: Peptide of SEQ ID NO: 285 (peptide)
peptide: Ac-[Pen]NT[Trp(7-nPr)]K(Ac)[Pen][AEF][2Nal][αMeK]K(Ac)N[dL]-NH2
modifications: disulfide 1-6
SMILES: CCCc1cccc2c(C[C@@H]3NC(=O)[C@H]([C@@H](C)O)NC(=O)[C@H](CC(N)=O)NC(=O)[C@@H](NC(C)=O)C(C)(C)SSC(C)(C)[C@@H](C(=O)N[C@@H](Cc4ccc(OCCN)cc4)C(=O)N[C@@H](Cc4ccc5ccccc5c4)C(=O)N[C@@](C)(CCCCN)C(=O)N[C@@H](CCCCNC(C)=O)C(=O)N[C@@H](CC(N)=O)C(=O)N[C@H](CC(C)C)C(N)=O)NC(=O)[C@H](CCCCNC(C)=O)NC3=O)c[nH]c12

pStat3 HTRF IC50 [1]: 0.632 nM | NK Cell Assay IC50 [2]: 3.35 nM
B2: Peptide of SEQ ID NO: 320 (peptide)
peptide: XNTXXXXXXKNL
modifications: Ac-[Pen]-N-T-[W(7-Me)]-[Lys(Gly)]-[Pen]-Phe[4-(2-aminoethoxy)]-[2-Nal]-[a-MeLys]-[Lys(Ac)]-N-[(D)Leu]-NH2; Pen-Pen disulfide

pStat3 HTRF IC50 [1]: 4.52 nM
Binder: Ac-[Pen]NT[Trp(7-Me)]Q[Pen][AEF][Trp(1-Me)][αMeK]K(Ac)N[βAla]-NH2 (disulfide 1-6) [Peptide of SEQ ID NO: 283]

pStat3 HTRF IC50 [1]: 0.283 nM | NK Cell Assay IC50 [2]: 1.62 nM
B3: Peptide of SEQ ID NO: 354 (peptide)
peptide: XNTXKXXXXKNN
modifications: Ac-[Pen]-N-T-[W(7-Me)]-[Lys(Ac)]-[Pen]-Phe[4-(2-aminoethoxy)]-[2-Nal]-[a-MeLeu]-[Lys(Ac)]-N-[(D)Asn]-NH2; Pen-Pen disulfide

pStat3 HTRF IC50 [1]: 1.37 nM
B4: Peptide of SEQ ID NO: 282 (peptide)
peptide: XNTXQXXXXENX
modifications: Ac-[Pen]-N-T-[W(7-Me)]-Q-[Pen]-Phe[4-(2-aminoethoxy)]-[2-Nal]-[a-MeLys]-E-N-[bA]-NH2; Pen-Pen disulfide

pStat3 HTRF IC50 [1]: 66.1 nM | NK Cell Assay IC50 [2]: > 500 nM
B5: Peptide of SEQ ID NO: 210 (peptide)
peptide: XNTXQXXXXKLX
modifications: Ac-[Pen]-NT-[W(7-Me)]-Q-[Pen]-Phe[4-(2-aminoethoxy)]-[2-Nal]-[a-MeLeu]-[Lys(Ac)]-[(D)Leu]-[bA]-NH2; Pen-Pen disulfide

pStat3 HTRF IC50 [1]: 36.5 nM | NK Cell Assay IC50 [2]: 157 nM
B6: Peptide of SEQ ID NO: 212 (peptide)
peptide: XNTXQXXXXKPX
modifications: Ac-[Pen]-NT-[W(7-Me)]-Q-[Pen]-Phe[4-(2-aminoethoxy)]-[2-Nal]-[a-MeLeu]-[Lys(Ac)]-[(D)Pro]-[bA]-NH2; Pen-Pen disulfide

pStat3 HTRF IC50 [1]: 0.55 nM | NK Cell Assay IC50 [2]: 4.52 nM
Binder: Ac-[Pen]ST[Trp(7-Me)]K(Ac)[Pen][AEF][2Nal][αMeK]K(Ac)N[dL]-NH2 (disulfide 1-6 (inferred)) [Peptide of SEQ ID NO: 334]

pStat3 HTRF IC50 [1]: 0.322 nM | NK Cell Assay IC50 [2]: 2.1 nM
Binder: Ac-[Pen]NT[Trp(7-Me)][Cit][Pen][AEF][2Nal][αMeK]K(Ac)N[Aib][βAla]-NH2 (disulfide 1-6 (inferred)) [Peptide of SEQ ID NO: 340]

pStat3 HTRF IC50 [1]: 2.86 nM
B7: Peptide of SEQ ID NO: 299 (peptide)
peptide: XNTXKXXXXKNK
modifications: Ac-[Pen]-N-T-[W(7-OMe)]-[Lys(Ac)]-[Pen]-Phe[4-(2-aminoethoxy)]-[2-Nal]-[a-MeLys]-[Lys(Ac)]-N-[(D)Lys]-NH2; Pen-Pen disulfide

pStat3 HTRF IC50 [1]: > 1 µM
Binder: Ac-[Pen]NT[Trp(7-OMe)][Cit][Pen][AEF][2Nal][αMeK]K(Ac)N[dK]-NH2 (disulfide 1-6 (inferred)) [Peptide of SEQ ID NO: 300]

pStat3 HTRF IC50 [1]: 128 nM
Binder: Ac-[Pen]NT[Trp(7-Me)]K(Ac)[Pen][His_Bzl][2Nal][αMeK]K(Ac)N[dL]-NH2 (disulfide 1-6 (inferred)) [Peptide of SEQ ID NO: 292]

pStat3 HTRF IC50 [1]: 1.61 nM
Binder: Ac-[Pen]NT[Trp(7-i-Pr)]K(Ac)[Pen][AEF][2Nal][αMeK]K(Ac)N[dL]-NH2 (disulfide 1-6 (inferred)) [Peptide of SEQ ID NO: 286]

pStat3 HTRF IC50 [1]: 1.04 nM
B8: Peptide of SEQ ID NO: 297 (peptide)
peptide: XNTXQXXXXKNK
modifications: Ac-[Pen]-N-T-[W(7-OMe)]-Q-[Pen]-Phe[4-(2-aminoethoxy)]-[2-Nal]-[a-MeLys]-[Lys(Ac)]-N-[(D)Lys]-NH2; Pen-Pen disulfide

pStat3 HTRF IC50 [1]: 5.6 nM
B9: Peptide of SEQ ID NO: 316 (peptide)
peptide: XNTXXXXXXKNL
modifications: not fully specified; Ac-[Pen]-N-T-[W(7-Me)]-[Lys(cyclohexyl)]-[Pen]-Phe[4-(2-aminoethoxy)]-[2-Nal]-[a-MeLys]-[Lys(Ac)]-N-[(D)Leu]-NH2; Pen-Pen disulfide

pStat3 HTRF IC50 [1]: 0.715 nM | NK Cell Assay IC50 [2]: 7.1 nM
Binder: Ac-[Pen]NT[Trp(7-Me)]K(Ac)[Pen][AEF][Trp(2-Me)][αMeK]K(Ac)N[dK]-NH2 (disulfide 1-6 (inferred)) [Peptide of SEQ ID NO: 353]
